The target of assay [1] is HA-Ctla-4 (zebrafish cytotoxic T lymphocyte antigen-4, from pCDNA3.1-HA-Ctla-4) (zebrafish). Nature of the assay: Western blot under non-reducing and reducing conditions; lysate of HEK293T cells transfected with pCDNA3.1-HA-Ctla-4 for 48 hr, mixed with loading buffer without or with β-ME; empty plasmid as control. Background: Immunoblotting shows a protein as a band on a membrane.

Assay [2] has as its target Cd28 with EGFP-tag (labeled protein of the MST assay) (zebrafish). The assay is described as follows: MST; Monolith NT.115; EGFP-tagged Cd28 or Ctla-4 as labeled protein, unlabeled Cd80/86 titrated (initial 3.2 µM, 16 doubling dilutions), 10 min at room temperature, measured at 25 °C, 40% LED, medium MST power.
Assay [3] addresses Ctla-4 with EGFP-tag (labeled protein of the MST assay) (zebrafish). The description is as above.

The text below walks through data of paper PMC12092003.

In assay [1], “HA-Ctla-4 (zebrafish cytotoxic T lymphocyte antigen-4, from pCDNA3.1-HA-Ctla-4) (receptor)” returned a stoichiometry N of 2. For the substance “recombinant soluble Cd80/86 (Cd80/86 extracellular domain) (domain or fragment)”, the results for the Kd in assay [2] and in assay [3] were 2640 nM and 500 nM, respectively.

In general, stoichiometry N refers to the number of molecules, sites or subunits per partner or assembly. In general, Kd refers to the constant that tells how readily two partners part at equilibrium. A high value points to a looser complex.
